Tests used:
Xrt-lin28a [1] = target: T1, Xrt-lin28a (Xenopus tropicalis, UniProt Q5EB47 34-177); assay: EMSA; conditions: Bmax 1.017; n=3; 60 mM KCl, 10 mM HEPES pH 7.6, 3 mM MgCl2, 5% glycerol, 1 mM DTT, 5 ug/ul heparin, 150 ng yeast total RNA; 30 min room temperature; 10% native PAGE
T1 sequence: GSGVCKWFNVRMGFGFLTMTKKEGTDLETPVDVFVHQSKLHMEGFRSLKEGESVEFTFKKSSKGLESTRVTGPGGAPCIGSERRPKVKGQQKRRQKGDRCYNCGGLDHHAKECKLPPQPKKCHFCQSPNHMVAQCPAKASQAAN

Xrt-lin28a [2] = target: T1, Xrt-lin28a; assay: EMSA; Bmax 0.962; n=3; 60 mM KCl, 10 mM HEPES pH 7.6, 3 mM MgCl2, 5% glycerol, 1 mM DTT, 5 ug/ul heparin, 150 ng yeast total RNA; 30 min room temperature; 10% native PAGE; conditions: protein: recombinant

For L-let-7g, the Kd (Xrt-lin28a [1]) was 314 nM.

For UGCAAUUUUAUUUAGUUUGGUAGGAGAAAAAUUGC (structured_RNA) [L-mir-363], the Kd (Xrt-lin28a [2]) was 448 nM.

Reference: PMC4982076, “lin28 proteins promote expression of 17∼92 family miRNAs during amphibian development”
